One block for each binder: values may come before it.
Experiments:
[1] = target: T1, Recombinant human TNFRSF5 (CD40) (human, UniProt P25942 21-193); assay: ELISA, plate coated with a dilution series of the recombinant TNFRSF protein [panel A]
T1 construct: Plate-adsorbed antigen of the ELISA
Method: (§1) An eight point, two-fold dilution series of each recombinant human TNFRSF protein was prepared after dilution of stock proteins to 5 μg/mL in PBS. Subsequently, 50 μL of each antigen dilution was transferred in duplicate to wells of a Nunc 96-well MaxiSorp flat bottom plate, and incubated overnight at 4° C. to adsorb proteins to the plate. Afterwards, plates were washed three times with PBS in a BioTek® plate washer to remove unbound protein. Anti OX40 mAb29, 9B12, and control antibodies were diluted in PBS to a final concentration of 10 μg/mL, and 50 μL of mAb were added to each well and incubated at room temperature for one hour to bind mAb to plate-bound protein. Thereafter, wells were washed with PBS/Tween-20 0.1% (volume/volume) using a BioTek® plate washer. HRP conjugated goat anti-human or goat anti-mouse secondary antibodies at 10 μg/mL was added to each well and incubated at room temperature for 1 hour. After three washes in PBS/Tween-20 0.1%, 50 μL of TMB substrate was added to each well and incubated at room temperature for 5 minutes to develop the colorimetric product. Reactions were stopped by adding 50 μL of 0.5 molar H₂SO₄ to wells, and plates read immediately at 450 nm using an Envision C plate reader for detection of the colorimetric product.

[2] = target: T2, Recombinant human TNFRSF1β (TNFRII) (human, UniProt P20333 23-257); assay: as above
T2 construct: Plate-adsorbed antigen of the ELISA; also called TNFR2; TNFRSF1B
T2 sequence (looked up): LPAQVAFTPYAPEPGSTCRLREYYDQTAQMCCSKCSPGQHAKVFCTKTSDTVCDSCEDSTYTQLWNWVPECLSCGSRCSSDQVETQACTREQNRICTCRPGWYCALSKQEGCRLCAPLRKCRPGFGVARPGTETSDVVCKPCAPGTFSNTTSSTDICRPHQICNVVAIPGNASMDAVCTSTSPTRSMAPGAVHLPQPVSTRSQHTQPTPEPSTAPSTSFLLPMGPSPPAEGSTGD
Method: as §1

[3] = target: T3, Recombinant human TNFRSF11B (OPG) (human, UniProt O00300 22-401, limits assumed); assay: as above
T3 construct: Plate-adsorbed antigen of the ELISA; also called osteoprotegerin
T3 sequence (looked up): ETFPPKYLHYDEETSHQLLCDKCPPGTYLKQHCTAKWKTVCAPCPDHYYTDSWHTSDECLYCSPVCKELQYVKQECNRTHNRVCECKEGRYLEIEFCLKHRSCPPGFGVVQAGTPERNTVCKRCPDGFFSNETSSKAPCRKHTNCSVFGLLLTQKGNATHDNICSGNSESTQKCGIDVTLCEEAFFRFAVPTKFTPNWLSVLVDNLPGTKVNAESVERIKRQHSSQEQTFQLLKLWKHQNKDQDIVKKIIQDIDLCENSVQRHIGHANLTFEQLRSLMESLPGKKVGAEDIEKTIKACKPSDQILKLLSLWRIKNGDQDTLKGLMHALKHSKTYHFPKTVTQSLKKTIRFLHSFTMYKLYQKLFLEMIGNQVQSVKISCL
Method: as §1

[4] = target: T4, Recombinant human TNFRSF11A (RANK) (human, UniProt Q9Y6Q6 30-212); assay: as above
T4 construct: Plate-adsorbed antigen of the ELISA; also called CD265
T4 sequence (looked up): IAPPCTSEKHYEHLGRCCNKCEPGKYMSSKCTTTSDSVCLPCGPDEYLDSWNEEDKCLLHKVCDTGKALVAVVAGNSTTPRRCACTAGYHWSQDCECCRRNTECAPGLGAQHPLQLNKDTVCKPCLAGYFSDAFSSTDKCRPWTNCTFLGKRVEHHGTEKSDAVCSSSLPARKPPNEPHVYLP
Method: as §1

[5] = target: T5, Recombinant human TNFRSF16 (NGFR) (human, UniProt P08138 29-250); assay: as above
T5 construct: Plate-adsorbed antigen of the ELISA
T5 sequence (looked up): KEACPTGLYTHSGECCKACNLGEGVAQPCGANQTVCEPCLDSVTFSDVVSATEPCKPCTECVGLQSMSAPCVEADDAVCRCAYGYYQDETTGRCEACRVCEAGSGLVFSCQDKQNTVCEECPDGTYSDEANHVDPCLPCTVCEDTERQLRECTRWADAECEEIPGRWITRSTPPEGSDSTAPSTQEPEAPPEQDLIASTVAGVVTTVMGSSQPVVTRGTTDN
Method: as §1

[6] = target: T6, Recombinant human TNFRSF3 (LTβR) (human, UniProt P36941 28-227, limits assumed); assay: as above
T6 construct: Plate-adsorbed antigen of the ELISA
T6 sequence (P36941 28-227 limits assumed): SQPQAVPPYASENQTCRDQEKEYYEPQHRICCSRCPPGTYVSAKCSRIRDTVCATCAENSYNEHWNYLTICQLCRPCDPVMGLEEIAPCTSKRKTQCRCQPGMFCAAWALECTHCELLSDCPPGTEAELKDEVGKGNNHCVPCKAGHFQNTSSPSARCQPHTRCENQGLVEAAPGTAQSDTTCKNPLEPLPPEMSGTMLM
Method: as §1

[7] = target: T7, Recombinant human TNFRSF21 (DR6) (human, UniProt O75509 42-349, limits assumed); assay: as above
T7 construct: Plate-adsorbed antigen of the ELISA
T7 sequence (looked up): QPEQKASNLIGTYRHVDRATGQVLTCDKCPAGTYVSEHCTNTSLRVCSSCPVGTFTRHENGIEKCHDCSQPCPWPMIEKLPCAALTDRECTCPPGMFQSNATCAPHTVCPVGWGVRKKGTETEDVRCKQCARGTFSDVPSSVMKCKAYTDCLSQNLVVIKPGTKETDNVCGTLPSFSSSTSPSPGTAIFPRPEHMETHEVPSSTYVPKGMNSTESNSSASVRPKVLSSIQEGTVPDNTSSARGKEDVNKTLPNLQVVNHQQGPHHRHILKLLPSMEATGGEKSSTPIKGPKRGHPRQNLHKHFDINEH
Method: as §1

[8] = target: T8, Recombinant human TNFRSF14 (HVEM) (human, UniProt Q92956 39-202, limits assumed); assay: as above
T8 construct: Plate-adsorbed antigen of the ELISA
T8 sequence (looked up): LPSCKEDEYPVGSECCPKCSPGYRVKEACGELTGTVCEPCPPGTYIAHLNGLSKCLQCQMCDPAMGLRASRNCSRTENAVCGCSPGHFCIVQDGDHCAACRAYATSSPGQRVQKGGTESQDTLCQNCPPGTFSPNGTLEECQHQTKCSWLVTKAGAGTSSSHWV
Method: as §1

[9] = target: T9, Recombinant human TNFRSF6 (FAS) (human, UniProt P25445 26-173); assay: as above
T9 construct: Plate-adsorbed antigen of the ELISA
T9 sequence (looked up): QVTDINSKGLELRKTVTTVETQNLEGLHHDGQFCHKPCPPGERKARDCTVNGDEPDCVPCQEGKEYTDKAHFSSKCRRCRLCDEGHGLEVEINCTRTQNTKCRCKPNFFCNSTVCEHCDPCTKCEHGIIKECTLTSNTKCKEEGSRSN
Method: as §1

[10] = target: T10, Recombinant human TNFRSF9 (CD137) (human, UniProt Q07011 24-186, limits assumed); assay: as above
T10 construct: Plate-adsorbed antigen of the ELISA
Method: as §1

[11] = target: T11, Recombinant human TNFRSF18 (GITR) (human, UniProt Q9Y5U5 26-162, limits assumed); assay: as above
T11 construct: Plate-adsorbed antigen of the ELISA
T11 sequence (looked up): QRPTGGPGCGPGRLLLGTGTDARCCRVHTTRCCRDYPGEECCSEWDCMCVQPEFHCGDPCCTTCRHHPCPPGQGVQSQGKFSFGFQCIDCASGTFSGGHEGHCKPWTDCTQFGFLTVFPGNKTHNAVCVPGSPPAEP
Method: as §1

Mouse OX40 = target: T12, Mouse OX40 (mouse, UniProt P47741 20-272); assay: flow cytometry on activated primary mouse CD4+ T cells
T12 construct: also called mOX40; murine OX40
T12 sequence: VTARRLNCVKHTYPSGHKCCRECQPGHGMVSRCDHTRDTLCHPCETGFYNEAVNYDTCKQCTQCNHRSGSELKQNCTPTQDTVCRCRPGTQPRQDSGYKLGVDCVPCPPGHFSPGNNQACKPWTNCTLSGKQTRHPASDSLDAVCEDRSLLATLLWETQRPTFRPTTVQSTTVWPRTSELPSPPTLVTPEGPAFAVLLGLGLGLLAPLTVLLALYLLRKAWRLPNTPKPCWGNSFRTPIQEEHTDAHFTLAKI
Method: Mouse CD4⁺ T cells (150,000 per well in 100 μL complete medium) were cultured overnight in 96-well plates coated with 2 μg/mL each hamster anti-mouse CD3 and hamster anti-mouse CD28 antibodies to activate T cells and induce OX40 expression. Activated CD4⁺ T cells were removed from the incubation plate and 100,000 cells were transferred to each well of a non-tissue culture-treated 96-well round-bottom plate for binding assays and washed once with FACS buffer. Binding was performed with 10 μg/mL of OX40mAb24, 9B12 and rat anti-mouse OX40, clone OX86 (positive control) antibodies each serially diluted 3-fold in FACS buffer for a 10-point data curve. For negative controls, 10 μg/mL R347 human IgG1, MOPC-21 mouse IgG1 or RTK2071 rat IgG1 were diluted 6-fold for a 3 point data curve. FACS buffer (50 μL) containing OX40mAb24, or antibodies, was added to CD4⁺ T cells in duplicate and incubated. Following primary incubation, cells were washed with 200 μL of 4° C. […] Following secondary antibody incubation, cells were washed with 4° C. FACS buffer (200 μL per wash) and suspended in 100 μL FACS buffer for flow cytometry analysis on a BD LSRII flow cytometer as described in Section 2.3.

T1 sequence (P25942 21-193 limits assumed): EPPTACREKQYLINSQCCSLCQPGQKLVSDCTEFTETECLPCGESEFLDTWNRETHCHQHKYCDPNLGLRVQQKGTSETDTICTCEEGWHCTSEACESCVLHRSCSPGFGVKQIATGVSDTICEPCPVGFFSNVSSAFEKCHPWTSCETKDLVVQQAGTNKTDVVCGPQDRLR

binding result [1]: no binding | binding result [2]: no binding | binding result [3]: no binding | binding result [4]: no binding | binding result [5]: no binding | binding result [6]: no binding | binding result [7]: no binding | binding result [8]: no binding | binding result [9]: no binding | binding result [10]: no binding | binding result [11]: no binding
B1: OX40mAb29 (antibody, human IgG1, kappa)
heavy: QVQLQESGPGLVKPSQTLSLTCAVYGGSFSSGYWNWIRKHPGKGLEYIGYISYNGITYHNPSLKSRITINRDTSKNQYSLQLNSVTPEDTAVYYCARYKYDYDGGHAMDYWGQGTLVTVSSASTKGPSVFPLAPSSKSTSGGTAALGCLVKDYFPEPVTVSWNSGALTSGVHTFPAVLQSSGLYSLSSVVTVPSSSLGTQTYICNVNHKPSNTKVDKRVEPKSCDKTHTCPPCPAPEFEGGPSVFLFPPKPKDTLMISRTPEVTCVVVDVSHEDPEVKFNWYVDGVEVHNAKTKPREEQYNSTYRVVSVLTVLHQDWLNGKEYKCKVSNKALPASIEKTISKAKGQPREPQVYTLPPSREEMTKNQVSLTCLVKGFYPSDIAVEWESNGQPENNYKTTPPVLDSDGSFFLYSKLTVDKSRWQQGNVFSCSVMHEALHNHYTQKSLSLSPGK
light: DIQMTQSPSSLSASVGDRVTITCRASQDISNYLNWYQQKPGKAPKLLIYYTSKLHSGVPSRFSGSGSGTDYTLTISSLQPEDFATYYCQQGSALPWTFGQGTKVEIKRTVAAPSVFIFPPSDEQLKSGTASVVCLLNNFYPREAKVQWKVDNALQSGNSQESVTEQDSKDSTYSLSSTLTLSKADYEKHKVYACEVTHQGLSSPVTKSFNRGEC
notes: also called Anti OX40 mAb29; IgG1 triple mutant (IgG1-TM) version of OX40mAb24

binding result (Mouse OX40): binds
B2: Rat anti-mouse OX40, clone OX86 (antibody, V domains shown)
VH: QVQLKESGPGLVQPSQTLSLTCTVSGFSLTGYNLHWVRQPPGKGLEWMGRMRYDGDTYYNSVLKSRLSISRDTSKNQVFLKMNSLQTDDTAIYYCTRDGRGDSFDYWGQGVMVTVSS
VL: DIVMTQGALPNPVPSGESASITCRSSQSLVYKDGQTYLNWFLQRPGQSPQLLTYWMSTRASGVSDRFSGSGSGTYFTLKISRVRAEDAGVYYCQQVREYPFTFGSGTKLEIK
notes: Rat IgG1κ; also called anti-mouse CD134 (OX86 clone) antibody

— patent US20160137740A1 (AstraZeneca / MedImmune, published 2016)
